Data: US20260217862A1 (NBIOS, published 2026)

Target: T1, Human Integrin αVβ3 (human, UniProt P06756 31-992; P05106 27-718)
T1 construct: Commercial heterodimer from ACROBiosystems; No catalogue number or construct limits are printed; also called Integrin aVß3; integrin (ITG)
Test: ELISA, CtsZ coated 200 ng/well, integrin αVβ3 titrated from 200 nM in 1/3 steps, detected with biotinylated anti-integrin alpha V antibody and streptavidin-HRP
Description: After coating 1×PBS (pH 7.4) containing 200 ng of CtsZ in each well of a 96-well high-binding plate at 4° C. for 16 hours, followed by washing twice with a washing buffer (20 mM Tris-HCl, 150 mM NaCl, 1 mM MnCl₂, 0.05% Tween-20), blocking was performed at room temperature for 2 hours using a blocking buffer (washing buffer containing 3% BSA). After washing twice with a washing buffer, binding was performed at room temperature for 2 hours using a dilution buffer (washing buffer containing 0.5% BSA) containing 200 nM, ⅓ eq. integrin αVβ3. After washing 4 times with a washing buffer, biotinylated anti-human integrin alpha V antibody (diluted to 1:100 with dilution buffer) was treated at room temperature for 1 hour. After washing 4 times with a washing buffer, HRP-conjugated streptavidin was treated at room temperature for 1 hour. After washing 4 times with a washing buffer, followed by addition of ultra TBM matrix, reaction was performed for 2 minutes and the reaction was stopped by adding 2 M H₂SO₄. KD values were calculated from the absorbance at 450 nm using the Prism7 software.
Because CtsZ has an RGD motif binding to integrin, particularly integrin αVβ3, in the pro-region, it was investigated whether the purified CtsZ was in active form by measuring binding affinity for integrin αVβ3 purchased from ACROBiosystems.

T1 sequence (P06756 31-992 limits assumed, chain 1 of 2): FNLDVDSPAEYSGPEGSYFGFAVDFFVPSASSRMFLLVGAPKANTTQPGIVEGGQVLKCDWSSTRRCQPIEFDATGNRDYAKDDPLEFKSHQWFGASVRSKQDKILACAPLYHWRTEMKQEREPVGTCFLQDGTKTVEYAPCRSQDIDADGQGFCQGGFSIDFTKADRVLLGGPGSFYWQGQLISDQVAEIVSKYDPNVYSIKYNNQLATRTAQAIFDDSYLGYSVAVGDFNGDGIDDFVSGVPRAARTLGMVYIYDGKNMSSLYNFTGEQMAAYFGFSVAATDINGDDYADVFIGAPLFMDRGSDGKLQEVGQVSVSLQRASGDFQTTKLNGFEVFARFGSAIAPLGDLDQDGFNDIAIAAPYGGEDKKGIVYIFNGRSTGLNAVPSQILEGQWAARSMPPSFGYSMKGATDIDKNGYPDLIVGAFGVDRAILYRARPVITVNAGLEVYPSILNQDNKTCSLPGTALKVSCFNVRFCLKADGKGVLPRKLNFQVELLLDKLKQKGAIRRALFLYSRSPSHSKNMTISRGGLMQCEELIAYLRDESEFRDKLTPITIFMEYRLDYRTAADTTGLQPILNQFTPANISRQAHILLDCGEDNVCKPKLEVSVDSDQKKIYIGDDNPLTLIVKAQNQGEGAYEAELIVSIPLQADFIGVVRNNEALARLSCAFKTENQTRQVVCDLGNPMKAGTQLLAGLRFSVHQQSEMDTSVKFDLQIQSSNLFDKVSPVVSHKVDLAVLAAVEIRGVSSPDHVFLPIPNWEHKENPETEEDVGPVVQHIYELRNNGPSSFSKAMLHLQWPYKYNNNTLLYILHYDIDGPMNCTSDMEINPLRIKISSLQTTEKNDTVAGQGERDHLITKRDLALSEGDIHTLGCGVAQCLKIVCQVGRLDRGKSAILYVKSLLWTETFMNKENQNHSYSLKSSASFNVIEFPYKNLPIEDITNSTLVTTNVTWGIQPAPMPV
T1 sequence (P05106 27-718 limits assumed, chain 2 of 2): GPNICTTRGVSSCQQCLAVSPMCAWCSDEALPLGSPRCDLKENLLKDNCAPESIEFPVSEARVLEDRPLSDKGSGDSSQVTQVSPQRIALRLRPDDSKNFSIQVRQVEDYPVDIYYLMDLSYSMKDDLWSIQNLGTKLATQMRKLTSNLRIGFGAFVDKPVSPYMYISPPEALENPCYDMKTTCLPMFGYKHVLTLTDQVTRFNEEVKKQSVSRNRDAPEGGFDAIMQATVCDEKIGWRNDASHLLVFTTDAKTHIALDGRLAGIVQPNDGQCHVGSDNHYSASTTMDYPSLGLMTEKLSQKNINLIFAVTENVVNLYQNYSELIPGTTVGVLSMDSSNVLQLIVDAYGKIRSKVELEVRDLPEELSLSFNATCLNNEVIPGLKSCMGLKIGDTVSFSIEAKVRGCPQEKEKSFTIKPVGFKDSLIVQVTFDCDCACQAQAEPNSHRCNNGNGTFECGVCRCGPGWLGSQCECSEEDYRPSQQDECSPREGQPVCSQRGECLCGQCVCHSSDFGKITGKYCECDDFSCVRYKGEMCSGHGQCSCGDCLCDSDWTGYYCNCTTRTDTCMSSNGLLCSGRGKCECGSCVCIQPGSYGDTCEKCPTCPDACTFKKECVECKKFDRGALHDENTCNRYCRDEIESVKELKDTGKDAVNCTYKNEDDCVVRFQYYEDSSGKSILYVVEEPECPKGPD

B1: recombinant human cathepsin Z with C-terminal 6x-His tag (enzyme)
chain: not shown
notes: Secreted from Expi-293F cells and purified on Ni-NTA; Glycosylated, about 37 kDa on SDS-PAGE against 33 kDa predicted; also called CtsZ; purified CtsZ
- Kd: ~137 nM
